The record followed here is US20250092140A1 (SHENGHE CHINA BIOPHARMACEUTICAL, published 2025).

Sequences and labels used below:
T1: human-NKP30-His (human, UniProt O14931 19-138)
T1 construct: Bought protein; also called NKP30 protein; NKP30-his protein; not shown: His tag
T1 sequence (looked up): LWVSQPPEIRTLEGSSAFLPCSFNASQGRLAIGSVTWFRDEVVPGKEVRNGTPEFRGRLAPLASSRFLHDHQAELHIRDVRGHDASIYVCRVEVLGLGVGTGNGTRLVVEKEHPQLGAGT

B1: constructed antibody B23 (bispecific antibody, human IgG4 S228P, kappa)
heavy: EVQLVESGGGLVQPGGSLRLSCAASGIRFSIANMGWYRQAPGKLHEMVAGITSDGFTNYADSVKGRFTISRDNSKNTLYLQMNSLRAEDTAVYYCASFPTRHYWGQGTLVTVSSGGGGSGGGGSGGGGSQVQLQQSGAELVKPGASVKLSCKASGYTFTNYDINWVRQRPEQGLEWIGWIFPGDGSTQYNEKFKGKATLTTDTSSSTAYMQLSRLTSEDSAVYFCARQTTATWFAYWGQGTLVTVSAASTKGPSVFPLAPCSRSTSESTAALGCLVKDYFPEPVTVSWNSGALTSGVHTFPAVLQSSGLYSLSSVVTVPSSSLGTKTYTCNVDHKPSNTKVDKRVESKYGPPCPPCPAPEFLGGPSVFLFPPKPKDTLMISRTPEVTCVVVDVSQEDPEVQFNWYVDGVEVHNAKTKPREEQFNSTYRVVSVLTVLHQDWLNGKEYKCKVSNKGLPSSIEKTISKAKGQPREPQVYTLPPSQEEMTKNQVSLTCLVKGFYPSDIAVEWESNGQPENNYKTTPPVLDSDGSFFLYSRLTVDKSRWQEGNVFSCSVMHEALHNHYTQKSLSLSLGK
light: DIVMTQSPATLSVTPGDRVSLSCRASQSISDYLHWYQQKSHESPRLLIKYASQSISGIPSRFSGSGSGSDFTLSINSVEPEDVGVYYCQNGHSFPLTFGAGTKLELKRTVAAPSVFIFPPSDEQLKSGTASVVCLLNNFYPREAKVQWKVDNALQSGNSQESVTEQDSKDSTYSLSSTLTLSKADYEKHKVYACEVTHQGLSSPVTKSFNRGEC
notes: IgG4 subtype
B2: constructed antibody A24 (bispecific antibody, human IgG1, kappa)
heavy: not shown
light: DIVMTQSPATLSVTPGDRVSLSCRASQSISDYLHWYQQKSHESPRLLIKYASQSISGIPSRFSGSGSGSDFTLSINSVEPEDVGVYYCQNGHSFPLTFGAGTKLELKRTVAAPSVFIFPPSDEQLKSGTASVVCLLNNFYPREAKVQWKVDNALQSGNSQESVTEQDSKDSTYSLSSTLTLSKADYEKHKVYACEVTHQGLSSPVTKSFNRGEC
notes: IgG1 subtype
B3: constructed antibody D28 (bispecific antibody, human IgG4 S228P, kappa)
heavy: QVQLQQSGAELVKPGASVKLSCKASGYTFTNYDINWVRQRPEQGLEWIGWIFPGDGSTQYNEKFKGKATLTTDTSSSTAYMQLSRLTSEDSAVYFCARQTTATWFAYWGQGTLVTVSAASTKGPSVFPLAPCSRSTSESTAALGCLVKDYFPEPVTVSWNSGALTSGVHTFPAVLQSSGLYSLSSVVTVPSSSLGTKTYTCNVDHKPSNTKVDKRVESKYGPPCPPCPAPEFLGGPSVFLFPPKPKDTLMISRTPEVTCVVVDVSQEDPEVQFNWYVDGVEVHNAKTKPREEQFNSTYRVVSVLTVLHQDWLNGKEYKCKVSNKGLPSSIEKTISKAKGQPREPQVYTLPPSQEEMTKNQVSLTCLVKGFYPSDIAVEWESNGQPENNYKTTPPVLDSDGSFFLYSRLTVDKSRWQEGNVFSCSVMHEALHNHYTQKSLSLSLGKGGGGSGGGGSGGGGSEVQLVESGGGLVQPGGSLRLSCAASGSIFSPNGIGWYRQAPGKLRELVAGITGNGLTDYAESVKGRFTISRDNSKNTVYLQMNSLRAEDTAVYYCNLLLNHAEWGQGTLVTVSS
light: DIVMTQSPATLSVTPGDRVSLSCRASQSISDYLHWYQQKSHESPRLLIKYASQSISGIPSRFSGSGSGSDFTLSINSVEPEDVGVYYCQNGHSFPLTFGAGTKLELKRTVAAPSVFIFPPSDEQLKSGTASVVCLLNNFYPREAKVQWKVDNALQSGNSQESVTEQDSKDSTYSLSSTLTLSKADYEKHKVYACEVTHQGLSSPVTKSFNRGEC
notes: IgG4 subtype
B4: constructed antibody A25 (bispecific antibody, human IgG1, kappa)
heavy: not shown
light: DIVMTQSPATLSVTPGDRVSLSCRASQSISDYLHWYQQKSHESPRLLIKYASQSISGIPSRFSGSGSGSDFTLSINSVEPEDVGVYYCQNGHSFPLTFGAGTKLELKRTVAAPSVFIFPPSDEQLKSGTASVVCLLNNFYPREAKVQWKVDNALQSGNSQESVTEQDSKDSTYSLSSTLTLSKADYEKHKVYACEVTHQGLSSPVTKSFNRGEC
notes: IgG1 subtype

This test concerns the target T1, human-NKP30-His. The test can be described thus: ELISA, human-NKP30-His coated. The procedure:
The human-NKP30-His (purchased from ACRO Biosystems) was diluted to 0.5 μg/mL using pH 7.4 PBS buffer and 100 μL per well was added to a 96-well ELISA plate and coated overnight at 4° C. The plates were closed with 1% BSA blocking solution for 1 hour and washed 3 times with PBST. […] The plate was washed 3 times with PBST and HRP-labelled goat anti-human IgG Fc was diluted 1:20000 with sample diluent, 100 μL for each well was added and incubated for 1 h at room temperature. After washing the plate 4 times with PBST, 100 μL of TMB substrate was added into each well and incubated for 10 min at room temperature, avoiding light. Then 100 μL of 1 M HCl was added into each well to terminate the colour development reaction. The absorbance value of each well in the 96-well plate was measured on a multifunctional enzyme standard at a wavelength of 450 nm and a reference wavelength of 570 nm, absorbance value (OD) per well=OD_{450 nm}−OD_{570 nm}. The concentration of the constructed antibody was logarithmically used as the horizontal coordinate, the measured absorbance value per well as the vertical coordinate, and the Sigmoidal dose-response (Variable Slope) method (Graph Pad Prism Software, Graph Pad Software, San Diego, California) was selected for non-linear regression to obtain the binding curve between the target antibody and NKP30 protein.
A general note: In an ELISA, binding on a coated surface is turned into a signal by an enzyme label.
For the molecule B1, the binding result is “binds”.
As for B2, the binding result is reported as “binds”.
Consider B3, for which the binding result is reported as “binds”.
B4: the binding result is “binds”.
